Columns and labels:
[1] = Partial hydrolysis with healthy human saliva (Examples 15, 16); assay type: in vitro ADME; details: 37° C.
Description: Healthy human saliva was filtered through a 0.22 μm filter (Milex GS, Milipore), and in the filtrate was dissolved 1 mg/ml of the SLPI prepared in Reference Example 1. The mixture was then incubated at 37° C. for 30 days. As a control, the SLPI was dissolved in physiological saline (Physisalz; Fuso Yakuhin Kogyo), and the mixture was incubated at 37° C. for 30 days.
With an elapse of time, samples were taken and to each sample were added a Tris-HCl buffer (pH 6.8), SDS, 2-mercaptoethamel and glycerol, to final concentration of 60 mM, 2% by weight, 4% by weight and 10% by weight, respectively, and the mixture was subjected to an SDS-PAGE (U.K. Laemmli, Nature, 227, 680, 1970). The gel after electrophoresis was stained with Coomussie Brilliant Blue.
Next, polypeptides in the polyacrylamide gel thus obtained were electrically transferred to a membrane (Immobilon; Milipore) using a Milli Blot-SDE apparatus. After the transfer, the membrane was stained with 0.1% by weight of Coomassie Blue in 40% by weight methanol/1% by weight acetic acid, and washed with water. Then, after air drying, the bands b, c, d and e were excised, and for each band, the PTH-amino acids were cleaved from the N-terminus with an Applied Biosystems Protein Sequences (Applied Biosystems; 470A) and analysed with a PTH analyser (Applied Biosystems, 120A) to determine an amino acid sequence for 10 amino acids from the N-terminus.
According to the same procedure as described in Example 15, (Asn^55 -Ala^107) SLPI prepared in Example 11 was treated with healthy human saliva at 37° C., and a result is shown in FIG. 13. […] After 12 hours, a new band g (MW about 5,500) appeared.
Next, according to the same procedure as described in Example 15, the band g was electrically transferred to a membrane and N-terminal amino acid sequence was analyzed. […] The 6th amino acid could not be determined. The N-terminal amino acid sequence of the band g corresponds to an amino acid sequence starting from Arg^59 of SLPI.

[2] = biological target: T1, polymorphonuclear leucocyte elastase from human sputum (Homo sapiens, UniProt P08246); experiment: Simultaneous treatment with healthy human saliva and elastase (Examples 28, 29); assay type: in vitro ADME; details: 37° C.
T1 construct: Polymorphonuclear leukocyte elastase from human sputum (EPC Co; Funakoshi Yakuhin); purchased EPC Co. (via Funakoshi Yakuhin); host or cells: human sputum
T1 sequence (P08246 30-267): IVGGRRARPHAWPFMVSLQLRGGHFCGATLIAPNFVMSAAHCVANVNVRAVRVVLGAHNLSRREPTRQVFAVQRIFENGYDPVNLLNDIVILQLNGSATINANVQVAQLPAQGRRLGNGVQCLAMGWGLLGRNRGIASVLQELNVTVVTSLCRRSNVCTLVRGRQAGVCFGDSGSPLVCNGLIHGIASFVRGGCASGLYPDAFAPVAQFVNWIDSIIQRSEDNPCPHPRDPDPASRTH
Description: (1) Healthy human saliva was ultra-filtered through a 0.22 μm filter (Millex GS, Millipore), and to the filtered saliva were added SLPI and polymorphonuclear leucocyte elastase from human sputum (EPC, Funakoshi Yakuhin) to a final concentration of 50 μM respectively. The mixture was incubated at 37° C., samples were taken as time elapsed, and analyzed by SDS-PAGE as described in Example 27.
(2) Next, the band J was transferred to a membrane as described in Example 27, and N-terminal amino acid sequence was analyzed.
(1) According to the same procedure as described in Example 28, to healthy human saliva were dissolved SLPI and polymorphonuclear leucocyte elastase from human sputum to final concentrations of 50 μM and 100 μM respectively, and the mixture was incubated at 37° C. Samples were taken as time elapsed, and analyzed by SDS-PAGE.
(2) Next, N-terminal amino acid sequence of the band M was analyzed as described in Example 27.

Human plasma thrombin = biological target: T2, Human plasma thrombin (Homo sapiens, UniProt P00734); experiment: Assay for thrombin inhibitory activity (Example 36); assay type: biochemical; details: final concentration up to ×10^-5 M; enzyme 3 × 10^-9 M
T2 construct: (5) Human plasma thrombin (Kabi, Daiichi Kagaku Yakuhin); purchased Kabi (via Daiichi Kagaku Yakuhin); host or cells: human plasma
Description: F. Human plasma thrombin (Sigma)
Thrombin and FXa: 50 mM Tris-HCl, 7.5 mM EDTA-2Na, 175 mM NaCl (pH 8.4) […]
Substrate solution: for the enzymes F, G, H and I, the following substrate f, g, h or i, respectively, was dissolved to a final concentration shown in Table 24.
f. H.D-Phe-Pip-Arg-pNA (Kabi Vitrum)
To wells of an ELISA 96-well microtiter plate, were added a solution of (Arg^58 -Ala^107) SLPI obtained in Example 34 and then the enzyme solution, and the mixture was incubated at 37° C. for 10 minutes. Next, the substrate solution was added to develop the color, whose absorption was then measured at 405 nm. As a control, SLPI was used.

B1: SLPI: Human secretory leukoprotease inhibitor; recombinant SLPI of Reference Example 1 used as control (protein)
chain: SGKSFKAGVCPPKKSAQCLRYKKPECQSDWQCPGKKRCCPDTCGIKCLDPVDTPNPTRRKPGKCPVTYGQCLMLNPPNFCEMDGQCKRDLKCCMGMCGKSCVSPVKA
What does the source list for B1?
SDS-PAGE band of SLPI (MW about 13,000) during incubation in healthy human saliva ([1]; 1 mg/ml, up to 30 days): decreased as time elapid; SDS-PAGE band after incubation in physiological saline (control) ([1]; 30 days): maintained a band having an MW of about 13,000 during the incubation; cleavage sites in healthy human saliva ([1]; SDS-PAGE bands, N-terminal sequencing): between Arg^20 -Try^21, Arg^58 -Arg^59, Leu^72 -Met^73, and Met^73 -Leu^74; SDS-PAGE bands on simultaneous treatment with healthy human saliva and elastase ([2]; 50 μM polypeptide, elastase 50 μM (Example 28) or 100 μM (Example 29)): after 96 hours, a new band J with a molecular weight of about 5,500 appeared; cleavage site on simultaneous treatment with healthy human saliva and elastase ([2]; N-terminal sequencing of SDS-PAGE band): cleaved at the site between Thr^57 -Arg^58; inhibitory activity to thrombin (Human plasma thrombin): did not exhibit inhibitory activity
